In the supplement of paper PMC9233669:
Fewer inactive variants are shown than the library holds.

Columns and labels:
biotinyl-Phe-oxazolone = experiment: self-aminoacylation, catalytic enhancement (BFO) (fold over background); higher = more active; k-Seq, kA / k0A0; sequences stand for … in GGGAAUGGAUCCACAUCUACGAAUUC…UUCACUGCAGACUUGACGAAGCUG
Summary of the method: (§1)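 Mutagenized RNA pools with a 21-nt variable region (0.43 μM) were reacted with each biotinyl-aminoacyl-oxazolone at 2–1250 μM for 90 minutes at room temperature, in 50 μL HEPES/NaCl/KCl/MgCl2/CaCl2 buffer containing 5% acetonitrile at pH 6.9–7.0. RNA captured on streptavidin was quantified by triplicate qPCR and by Illumina sequencing. The fraction reacted for each sequence was fit to a pseudo-first-order model with bootstrapping, and catalytic enhancement is the median kA divided by the uncatalyzed rate, taken as the low-activity peak of a bimodal Gaussian fit.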

biotinyl-Ile-oxazolone = experiment: self-aminoacylation, catalytic enhancement (BIO) (fold over background); higher = more active; k-Seq, kA / k0A0; sequences stand for … in GGGAAUGGAUCCACAUCUACGAAUUC…UUCACUGCAGACUUGACGAAGCUG
Summary of the method: as §1

biotinyl-Met-oxazolone = experiment: self-aminoacylation, catalytic enhancement (BMO) (fold over background); higher = more active; k-Seq, kA / k0A0; sequences stand for … in GGGAAUGGAUCCACAUCUACGAAUUC…UUCACUGCAGACUUGACGAAGCUG
Summary of the method: as §1

biotinyl-Leu-oxazolone = experiment: self-aminoacylation, catalytic enhancement (BLO) (fold over background); higher = more active; k-Seq, kA / k0A0; sequences stand for … in GGGAAUGGAUCCACAUCUACGAAUUC…UUCACUGCAGACUUGACGAAGCUG
Summary of the method: as §1

biotinyl-Trp-oxazolone = experiment: self-aminoacylation, catalytic enhancement (BWO) (fold over background); higher = more active; k-Seq, kA / k0A0; sequences stand for … in GGGAAUGGAUCCACAUCUACGAAUUC…UUCACUGCAGACUUGACGAAGCUG
Summary of the method: as §1

biotinyl-Val-oxazolone = experiment: self-aminoacylation, catalytic enhancement (BVO) (fold over background); higher = more active; k-Seq, kA / k0A0; sequences stand for … in GGGAAUGGAUCCACAUCUACGAAUUC…UUCACUGCAGACUUGACGAAGCUG
Summary of the method: as §1

| Sequence | self-aminoacylation (biotinyl-Phe-oxazolone) | self-aminoacylation (biotinyl-Ile-oxazolone) | self-aminoacylation (biotinyl-Met-oxazolone) | self-aminoacylation (biotinyl-Leu-oxazolone) | self-aminoacylation (biotinyl-Trp-oxazolone) | self-aminoacylation (biotinyl-Val-oxazolone) |
| --- | --- | --- | --- | --- | --- | --- |
| CCUUACUUCAAGCAAUCGGUC [Fam1B.1 aminoacylation ribozyme variant] | 31.6 | 1.09 | 1.06 | 1.3 | 13 | 1.08 |
| AUUACACUUGUCAUCGAGUGA [Fam2.1 aminoacylation ribozyme variant] | 11.4 | 2.51 | 4.21 | 4.35 | 5.31 | 2.59 |
| AAUACCCUAGUCAUCGAGUGA [Fam2.1 aminoacylation ribozyme variant] | 15.4 | 2.46 | 4.24 | 4.49 | 5.18 | 2.64 |
| CGACACUUCAAUCAAUCGGUC [Fam1B.1 aminoacylation ribozyme variant] | 14.7 | 1.04 | 0.958 | 1.15 | 7.59 | 1.05 |
| AUUACCCUGGUCAUCGAGGCA [Fam2.1 aminoacylation ribozyme variant] | 1.25 | 1.29 | 1.9 | 1.97 | 0.847 | 1.59 |
| AAGUUUUCUAAUAGUCGCGAG [Fam3.1 aminoacylation ribozyme variant] | 5.94 | 2.02 | 1.84 | 1.88 | 2.99 | 1.71 |
| CUACUACAAACAAUCUGUCUG [Fam1A.1 aminoacylation ribozyme variant] | 0.733 | 0.787 | 0.624 | 0.647 | 0.45 | 0.835 |
| CUCCUUCAAACAAGCGGUCUG [Fam1A.1 aminoacylation ribozyme variant] | 0.811 | 0.98 | 0.734 | 0.774 | 1.25 | 0.83 |
| AUGCACCUAGGUCAACGGGUG [Fam2.2 aminoacylation ribozyme variant] | 14.2 | 2.45 | 2.51 | 2.68 | 2.21 | 1.95 |
| AUUACCCUGGUCUUCGGGUGA [Fam2.1 aminoacylation ribozyme variant] | 48.9 | 4.68 | 8.38 | 9.51 | 9.66 | 5.66 |
| AUUAGCCUGGUCAUGGAGUGA [Fam2.1 aminoacylation ribozyme variant] | 17.2 | 2.77 | 4.09 | 4.02 | 4.92 | 2.72 |
| AUUUACCUAGGUCAUCGGGUA [Fam2.2 aminoacylation ribozyme variant] | 218 | 14.1 | 29.5 | 39.9 | 22.2 | 12.3 |
| CUACUUCAAACACUCUGUCUG [Fam1A.1 aminoacylation ribozyme variant] | 0.709 | 0.797 | 0.608 | 0.547 | 0.678 | 0.724 |
| AUUACCUUGGUCAUCGAUUGA [Fam2.1 aminoacylation ribozyme variant] | 0.71 | 0.907 | 0.916 | 0.855 | 0.601 | 0.824 |
| CCACUCUUCGAGCAAUCGGUC [Fam1B.1 aminoacylation ribozyme variant] | 0.996 | 1.19 | 1.03 | 0.964 | 1.32 | 1.24 |
| UUCCUUCAAACAAUCGGUCUG [Fam1A.1 aminoacylation ribozyme variant] | 5.13 | 0.784 | 0.806 | 0.937 | 4.06 | 0.647 |
| AUUCAACUAGGGCAUCGGGUG [Fam2.2 aminoacylation ribozyme variant] | 22.4 | 2.7 | 3.16 | 4.3 | 2.99 | 2.88 |
| CAACUUCAAAUAAUCGGUCUG [Fam1A.1 aminoacylation ribozyme variant] | 15.6 | 1.27 | 1.05 | 1.39 | 12.2 | 1.11 |
| AUGUUUGCUAAUAGUCGCAGG [Fam3.1 aminoacylation ribozyme variant] | 2.47 | 1.54 | 1.76 | 1.8 | 1.95 | 1.33 |
| AUUCACCUUGGACAUCGGGUG [Fam2.2 aminoacylation ribozyme variant] | 17.1 | 2.51 | 3.51 | 3.37 | 2.97 | 3.24 |
| GUUCACCUAGGUCAGCGGGUG [Fam2.2 aminoacylation ribozyme variant] | 26.1 | 2.92 | 4.02 | 4.21 | 4.42 | 3.23 |
| ACUCACCUAGGGCAUCGGGUG [Fam2.2 aminoacylation ribozyme variant] | 18.2 | 4.42 | 3.92 | 5.19 | 6.35 | 3.83 |
| CCACAAUUCAAGCAAGCGGUC [Fam1B.1 aminoacylation ribozyme variant] | 0.932 | 1.3 | 1.3 | 0.998 | 0.509 | 1.42 |
| AGGUUUGCUAAUAGUCGAAAG [Fam3.1 aminoacylation ribozyme variant] | 13.6 | 1.2 | 1.16 | 0.991 | 3.4 | 1.02 |
| CCACACUUCAAGCCAUUGGUC [Fam1B.1 aminoacylation ribozyme variant] | 0.631 | 0.787 | 0.874 | 0.848 | 0.734 | 1.09 |
| AAGUUUGCUAAUAGUCGUAAA [Fam3.1 aminoacylation ribozyme variant] | 2.23 | 0.909 | 0.973 | 0.826 | 1.01 | 1.04 |

| Sequence | self-aminoacylation (biotinyl-Phe-oxazolone) | self-aminoacylation (biotinyl-Ile-oxazolone) | self-aminoacylation (biotinyl-Met-oxazolone) | self-aminoacylation (biotinyl-Leu-oxazolone) | self-aminoacylation (biotinyl-Trp-oxazolone) | self-aminoacylation (biotinyl-Val-oxazolone) |
| --- | --- | --- | --- | --- | --- | --- |
| AUUCACCUAGAUCACCGGGUG [Fam2.2 aminoacylation ribozyme variant] | 11.5 | 2.42 | 2.76 | 3.69 | 2.86 | 2.55 |
| AACUUUGCUAAUAGGCGCAAG [Fam3.1 aminoacylation ribozyme variant] | 3.02 | 2.36 | 1.7 | 1.79 | 1.96 | 2.05 |
| CCCCACCUCAAGCAAUCGGUC [Fam1B.1 aminoacylation ribozyme variant] | 5.97 | 1.73 | 1.48 | 1.48 | 4.87 | 2.2 |
| UUACGUCAAACAAUCGGUCUG [Fam1A.1 aminoacylation ribozyme variant] | 6.37 | 1.98 | 1.99 | 1.58 | 2.38 | 1.68 |
| CCACACUCGAAGCAAUCGGUC [Fam1B.1 aminoacylation ribozyme variant] | 1.07 | 1.2 | 1.1 | 0.764 | 0.864 | 1.11 |
| CUAUUUCAAACAAUCGGACUG [Fam1A.1 aminoacylation ribozyme variant] | 1.93 | 0.976 | 0.82 | 0.803 | 1.12 | 0.733 |
| CUACUUCAAACAAUCGCUCUU [Fam1A.1 aminoacylation ribozyme variant] | 0.851 | 0.938 | 0.772 | 0.539 | 0.632 | 0.856 |
| AUUACCCUGCUCAUCCAGUGA [Fam2.1 aminoacylation ribozyme variant] | 34.2 | 3.06 | 5.54 | 6.26 | 7.43 | 3.34 |
| AAGAUUGCUAAUAGUCGCAAU [Fam3.1 aminoacylation ribozyme variant] | 2.37 | 1.54 | 1.85 | 1.37 | 1.14 | 1.41 |
| AUUACCCUGGUCAUCGGGUGG [Fam2.1 aminoacylation ribozyme variant] | 395 | 22.6 | 68 | 80.6 | 81.4 | 26.3 |
| AAGUUUGCUUAUGGUCGCAAG [Fam3.1 aminoacylation ribozyme variant] | 0.863 | 0.54 | 0.728 | 0.603 | 0.782 | 0.727 |
| AAGAUUGCUAAUAUUCGCAAG [Fam3.1 aminoacylation ribozyme variant] | 1.44 | 2.02 | 1.42 | 1.58 | 2.51 | 1.5 |
| CUACUUUAUACAAUCGGUCUG [Fam1A.1 aminoacylation ribozyme variant] | 0.815 | 0.857 | 0.832 | 0.808 | 0.626 | 0.882 |
| AGUCCCCUAGGUCAUCGGGUG [Fam2.2 aminoacylation ribozyme variant] | 93.9 | 8.61 | 12 | 16.9 | 11.4 | 7.97 |
| AUUCACAUAGGUCAUAGGGUG [Fam2.2 aminoacylation ribozyme variant] | 2.85 | 1.55 | 2.17 | 2.3 | 1.66 | 1.54 |
| CUAGUCCAAACAAUCGGUCUG [Fam1A.1 aminoacylation ribozyme variant] | 1.03 | 0.963 | 0.736 | 0.755 | 1.01 | 0.767 |
| AUUCAUCUAGGUCAUCGGGUC [Fam2.2 aminoacylation ribozyme variant] | 2.17 | 1.07 | 1.21 | 1.22 | 1.02 | 1.28 |
| CUACUUCGAGCAAUCGGUCUG [Fam1A.1 aminoacylation ribozyme variant] | 0.728 | 0.951 | 1.15 | 0.815 | 0.703 | 1.01 |
| AUACAGCUAGGUCAUCGGGUG [Fam2.2 aminoacylation ribozyme variant] | 25.1 | 3.25 | 2.96 | 4.04 | 3.64 | 3.09 |
| AUUACCCUGCUCAUCGAGCGA [Fam2.1 aminoacylation ribozyme variant] | 0.874 | 1.12 | 1.3 | 1.4 | 0.81 | 0.851 |
| CCACACUUCCAGCAAUCGGCC [Fam1B.1 aminoacylation ribozyme variant] | 3.34 | 3.06 | 2.08 | 2.42 | 4.06 | 4.01 |
| AUCACACUGGUCAUCGAGUGA [Fam2.1 aminoacylation ribozyme variant] | 42.5 | 4.41 | 6.51 | 6.47 | 8.95 | 4.06 |
| AUUCAUCUAAGUCAUCGGGUG [Fam2.2 aminoacylation ribozyme variant] | 86.6 | 6.41 | 10.9 | 15 | 10.9 | 5.64 |
| CCACAAUUCAAGUAAUCGGUC [Fam1B.1 aminoacylation ribozyme variant] | 2.55 | 0.96 | 0.906 | 0.898 | 1.36 | 0.91 |
| AUUACCCUUGUCAUCGCGUGA [Fam2.1 aminoacylation ribozyme variant] | 85.5 | 5.26 | 10.7 | 13.6 | 14.3 | 5.9 |
